Laboratory results: the supplement of paper PMC9112550, “Optimization of the antimicrobial peptide Bac7 by deep mutational scanning” (BMC Biology, 2022)

tested on: Escherichia coli TOP10; test: shrunken log2 fold change of peptide-encoding DNA abundance (4.5 h post-induction vs induction); higher = less antimicrobial activity (less host growth inhibition); conditions: time post-induction: 4.5 h; library: site-saturation at positions 5, 18, 19, 20
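Note: peptides expressed intracellularly from a pBAD plasmid library in pooled LB shake-flask culture, induced with 0.3% L-arabinose, DNA abundance read by NGS, three biological replicates, DESeq2 with apeglm shrinkage.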

| Sequence | shrunken log2 fold change |
| --- | --- |
| RRIRLRPPRLPRPRPRPAECPRP | -0.167 |
| RRIRLRPPRLPRPRPRPAEFPRP | -0.011 |
| RRIRLRPPRLPRPRPRPAGMPRP | 0.213 |
| RRIRLRPPRLPRPRPRPAGVPRP | 0.103 |
| RRIRLRPPRLPRPRPRPAHFPRP | -0.197 |
| RRIRLRPPRLPRPRPRPAHMPRP | -0.0737 |
| RRIRLRPPRLPRPRPRPAKFPRP | 0.0249 |
| RRIRLRPPRLPRPRPRPAMKPRP | -0.0543 |
| RRIRLRPPRLPRPRPRPAMYPRP | -0.139 |
| RRIRLRPPRLPRPRPRPAPPPRP | 0.676 |
| RRIRLRPPRLPRPRPRPAPTPRP | 0.28 |
| RRIRLRPPRLPRPRPRPAQQPRP | 0.0982 |
| RRIRLRPPRLPRPRPRPAREPRP | 0.678 |
| RRIRLRPPRLPRPRPRPASGPRP | 0.373 |
| RRIRLRPPRLPRPRPRPASMPRP | -0.357 |
| RRIRLRPPRLPRPRPRPASNPRP | -0.124 |
| RRIRLRPPRLPRPRPRPAWTPRP | 0.218 |
| RRIRLRPPRLPRPRPRPAYIPRP | -0.098 |
| RRIRLRPPRLPRPRPRPAYQPRP | -0.142 |
| RRIRLRPPRLPRPRPRPAYYPRP | -0.253 |
| RRIRLRPPRLPRPRPRPCAFPRP | -0.295 |
| RRIRLRPPRLPRPRPRPCCCPRP | -0.117 |
| RRIRLRPPRLPRPRPRPCDQPRP | -0.016 |
| RRIRLRPPRLPRPRPRPCENPRP | 0.00489 |
| RRIRLRPPRLPRPRPRPCFMPRP | -0.311 |

| Sequence | shrunken log2 fold change |
| --- | --- |
| RRIRLRPPRLPRPRPRPCFTPRP | -0.497 |
| RRIRLRPPRLPRPRPRPCHHPRP | -0.322 |
| RRIRLRPPRLPRPRPRPCHKPRP | -0.278 |
| RRIRLRPPRLPRPRPRPCHWPRP | -0.11 |
| RRIRLRPPRLPRPRPRPCKLPRP | -0.114 |
| RRIRLRPPRLPRPRPRPCLDPRP | -0.0475 |
| RRIRLRPPRLPRPRPRPCMRPRP | 0.188 |
| RRIRLRPPRLPRPRPRPCQFPRP | -0.0181 |
| RRIRLRPPRLPRPRPRPCRAPRP | 0.146 |
| RRIRLRPPRLPRPRPRPCRTPRP | -0.66 |
| RRIRLRPPRLPRPRPRPCTMPRP | -0.152 |
| RRIRLRPPRLPRPRPRPCTWPRP | 0.0461 |
| RRIRLRPPRLPRPRPRPCTYPRP | -0.683 |
| RRIRLRPPRLPRPRPRPCVRPRP | 0.0511 |
| RRIRLRPPRLPRPRPRPCWLPRP | 0.0345 |
| RRIRLRPPRLPRPRPRPCWMPRP | -0.168 |
| RRIRLRPPRLPRPRPRPCWQPRP | 0.00378 |
| RRIRLRPPRLPRPRPRPCYMPRP | -0.308 |
| RRIRLRPPRLPRPRPRPDCHPRP | 0.092 |
| RRIRLRPPRLPRPRPRPDFMPRP | -0.277 |
| RRIRLRPPRLPRPRPRPDGAPRP | 0.0651 |
| RRIRLRPPRLPRPRPRPDGHPRP | 0.0499 |
| RRIRLRPPRLPRPRPRPDLAPRP | -0.062 |
| RRIRLRPPRLPRPRPRPDLFPRP | -0.000844 |
| RRIRLRPPRLPRPRPRPDMQPRP | -0.0583 |

| Sequence | shrunken log2 fold change |
| --- | --- |
| RRIRLRPPRLPRPRPRPDNGPRP | -0.0567 |
| RRIRLRPPRLPRPRPRPDPQPRP | -0.00554 |
| RRIRLRPPRLPRPRPRPDQGPRP | -0.034 |
| RRIRLRPPRLPRPRPRPDQHPRP | -0.0962 |
| RRIRLRPPRLPRPRPRPDQIPRP | 0.018 |
| RRIRLRPPRLPRPRPRPDSTPRP | -0.603 |
| RRIRLRPPRLPRPRPRPDTHPRP | -0.543 |
| RRIRLRPPRLPRPRPRPDTRPRP | -0.278 |
| RRIRLRPPRLPRPRPRPDVGPRP | -0.0266 |
| RRIRLRPPRLPRPRPRPDVTPRP | -0.0876 |
| RRIRLRPPRLPRPRPRPDWEPRP | 0.0332 |
| RRIRLRPPRLPRPRPRPDYSPRP | 0.14 |
| RRIRLRPPRLPRPRPRPDYYPRP | -0.216 |
| RRIRLRPPRLPRPRPRPEDHPRP | -0.0495 |
| RRIRLRPPRLPRPRPRPEEGPRP | -0.115 |
| RRIRLRPPRLPRPRPRPEGNPRP | -0.149 |
| RRIRLRPPRLPRPRPRPEGRPRP | 1.11 |
| RRIRLRPPRLPRPRPRPEHVPRP | -0.0237 |
| RRIRLRPPRLPRPRPRPEISPRP | 0.099 |
| RRIRLRPPRLPRPRPRPELAPRP | 0.0176 |
| RRIRLRPPRLPRPRPRPELGPRP | 0.0397 |
| RRIRLRPPRLPRPRPRPELYPRP | -0.0383 |
| RRIRLRPPRLPRPRPRPEMRPRP | 0.0659 |
| RRIRLRPPRLPRPRPRPENFPRP | 0.0173 |
| RRIRLRPPRLPRPRPRPENVPRP | -0.0483 |

| Sequence | shrunken log2 fold change |
| --- | --- |
| RRIRLRPPRLPRPRPRPEPPPRP | 0.53 |
| RRIRLRPPRLPRPRPRPEPWPRP | 0.222 |
| RRIRLRPPRLPRPRPRPESDPRP | -0.0845 |
| RRIRLRPPRLPRPRPRPESSPRP | -0.015 |
| RRIRLRPPRLPRPRPRPETLPRP | 0.228 |
| RRIRLRPPRLPRPRPRPEVSPRP | 0.254 |
| RRIRLRPPRLPRPRPRPEWRPRP | -0.0482 |
| RRIRLRPPRLPRPRPRPEWTPRP | -0.019 |
| RRIRLRPPRLPRPRPRPEYCPRP | 0.0552 |
| RRIRLRPPRLPRPRPRPFAFPRP | -0.442 |
| RRIRLRPPRLPRPRPRPFAIPRP | 0.0494 |
| RRIRLRPPRLPRPRPRPFCDPRP | -0.366 |
| RRIRLRPPRLPRPRPRPFDFPRP | -0.281 |
| RRIRLRPPRLPRPRPRPFDGPRP | -0.00197 |
| RRIRLRPPRLPRPRPRPFDLPRP | -0.0989 |
| RRIRLRPPRLPRPRPRPFDYPRP | -0.974 |
| RRIRLRPPRLPRPRPRPFESPRP | -0.168 |
| RRIRLRPPRLPRPRPRPFHEPRP | -0.101 |
| RRIRLRPPRLPRPRPRPFKCPRP | 2.83 |
| RRIRLRPPRLPRPRPRPFKLPRP | -0.294 |
| RRIRLRPPRLPRPRPRPFKPPRP | 0.2 |
| RRIRLRPPRLPRPRPRPFLSPRP | -0.643 |
| RRIRLRPPRLPRPRPRPFNRPRP | -0.00257 |
| RRIRLRPPRLPRPRPRPFRCPRP | -0.181 |
| RRIRLRPPRLPRPRPRPFRGPRP | -0.0479 |

| Sequence | shrunken log2 fold change |
| --- | --- |
| RRIRLRPPRLPRPRPRPFRVPRP | 0.128 |
| RRIRLRPPRLPRPRPRPFSCPRP | 0.0222 |
| RRIRLRPPRLPRPRPRPFSPPRP | 2.3 |
| RRIRLRPPRLPRPRPRPFTEPRP | -0.163 |
| RRIRLRPPRLPRPRPRPFTIPRP | -0.174 |
| RRIRLRPPRLPRPRPRPFVMPRP | -0.241 |
| RRIRLRPPRLPRPRPRPFWEPRP | 0.117 |
| RRIRLRPPRLPRPRPRPFWRPRP | 0.252 |
| RRIRLRPPRLPRPRPRPFYEPRP | -0.426 |
| RRIRLRPPRLPRPRPRPGANPRP | -0.146 |
| RRIRLRPPRLPRPRPRPGAVPRP | 0.375 |
| RRIRLRPPRLPRPRPRPGDQPRP | 0.0619 |
| RRIRLRPPRLPRPRPRPGECPRP | 0.159 |
| RRIRLRPPRLPRPRPRPGFAPRP | 0.36 |
| RRIRLRPPRLPRPRPRPGFLPRP | 0.0856 |
| RRIRLRPPRLPRPRPRPGFMPRP | -0.382 |
| RRIRLRPPRLPRPRPRPGFYPRP | -0.102 |
| RRIRLRPPRLPRPRPRPGGEPRP | 0.343 |
| RRIRLRPPRLPRPRPRPGHAPRP | 0.21 |
| RRIRLRPPRLPRPRPRPGHNPRP | -0.371 |
| RRIRLRPPRLPRPRPRPGIDPRP | -0.0208 |
| RRIRLRPPRLPRPRPRPGIPPRP | 0.215 |
| RRIRLRPPRLPRPRPRPGKHPRP | -0.0923 |
| RRIRLRPPRLPRPRPRPGKLPRP | -0.00186 |
| RRIRLRPPRLPRPRPRPGLIPRP | 0.045 |

| Sequence | shrunken log2 fold change |
| --- | --- |
| RRIRLRPPRLPRPRPRPGLMPRP | -0.0199 |
| RRIRLRPPRLPRPRPRPGMYPRP | -0.115 |
| RRIRLRPPRLPRPRPRPGNIPRP | -0.0276 |
| RRIRLRPPRLPRPRPRPGPTPRP | 0.109 |
| RRIRLRPPRLPRPRPRPGQCPRP | -0.0373 |
| RRIRLRPPRLPRPRPRPGQRPRP | 0.0889 |
| RRIRLRPPRLPRPRPRPGRCPRP | 0.341 |
| RRIRLRPPRLPRPRPRPGRHPRP | 0.0767 |
| RRIRLRPPRLPRPRPRPGRMPRP | 0.123 |
| RRIRLRPPRLPRPRPRPGSCPRP | 0.0403 |
| RRIRLRPPRLPRPRPRPGSEPRP | -0.0984 |
| RRIRLRPPRLPRPRPRPGTNPRP | -0.0983 |
| RRIRLRPPRLPRPRPRPGTPPRP | 0.0973 |
| RRIRLRPPRLPRPRPRPGYHPRP | -0.421 |
| RRIRLRPPRLPRPRPRPGYQPRP | -0.133 |
| RRIRLRPPRLPRPRPRPHCCPRP | -0.376 |
| RRIRLRPPRLPRPRPRPHCKPRP | -0.708 |
| RRIRLRPPRLPRPRPRPHDDPRP | -0.115 |
| RRIRLRPPRLPRPRPRPHDLPRP | -0.308 |
| RRIRLRPPRLPRPRPRPHFEPRP | 0.118 |
| RRIRLRPPRLPRPRPRPHFSPRP | -0.189 |
| RRIRLRPPRLPRPRPRPHHDPRP | -0.694 |
| RRIRLRPPRLPRPRPRPHHIPRP | -0.343 |
| RRIRLRPPRLPRPRPRPHHMPRP | -0.353 |
| RRIRLRPPRLPRPRPRPHHSPRP | -0.506 |
